Experimental findings from the nanobody polyreactivity screen of Harvey et al. (2022) are described below.

The series in a line: yeast display, Sf9 membrane polyspecificity reagent, FACS + sequencing; frameworks hold sequencing errors. The essentials: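 A synthetic nanobody library was expressed on Saccharomyces cerevisiae BJ5465 by galactose induction for 36–48 hours. The library was stained for 1 hour at 4 °C with 10% biotinylated, detergent-solubilized Sf9 membrane reagent and enriched with streptavidin microbeads before FACS. Low and high (top ~1%) gates were set on anti-HA fluorescence for expression and streptavidin fluorescence for reagent binding, and each polyreactivity label reflects the gate of origin.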
“QVQLVESGGGLVQAGGSLRLSCAASGRTLYRNAMGWYRQAPGKERELVARITWSGASTYYADSVKGRFTISRDNAKNTVYLQMNSLKPDDTAVYYCNTGYWYVSLGSYDYYGEYDYWGQGTQVTVSS”: the “polyreactivity (PSR sort gate)” value is on record as “high polyreactivity”.
For the sequence “QVQLVESGGGLVQAGGSLRLSCAASGRTLYRYAMGWYRQAPGKERELVAAISSGGRTYYADSVKGRFTISRDNAKNTVYLQMNSLKPEDTAVYYCAAERGWWRNDFDYWGQGTQVTVSS”, the “polyreactivity (PSR sort gate)” value is reported as “high polyreactivity”.
As for “QVQLVESGGGLVQAGGSLRLSCAASGRTLYVYAMGWYRQAPGKEREFVAAINSSGDSTYYADSVKGRFTISRDNAKNTVYLQMNSLKPEDTAVYYCAAAGYYGYGYDYWGQGTQVTVSS”, the “polyreactivity (PSR sort gate)” value is “low polyreactivity”.
“QVQLVESGGGLVQAGGSLRLSCAASGRTLYYYTMGWYRQAPGKERELVAAIRWSTGSTYYADSVKGRFTISRDNAKNTVYLQMNSLKPEDTAVYYCNAVVARLIFWQFDYWGQGTQVTVSS”: the “polyreactivity (PSR sort gate)” value is recorded as “high polyreactivity”.
With “QVQLVESGGGLVQAGGSLRLSCAASGRTNRFYAMGWYRPAPGNERELVAAIRNGGRTNYADSVKGRFTIARDNAKNTVYLQMNSLKPEDTAVYSCAKQPGISYRHYDYWGQGPQVTVSS” the entry was “high polyreactivity”; with “QVQLVESGGGLVQAGGSLRLSCAASGRTQSANAMGWYREAPGKERELVATISTRGGRTYYADSVKGRFTISRDNAKNTVYLQMNSLKPEDTAVYYCAVTIRAKYTMKEDYWGQGTQVTVSS”, “low polyreactivity”.
“QVQLVESGGGLVQAGGSLRLSCAASGRTQWRYAMGWYRQAPGKERELVASIRSGGSTYYADSVKGRFTISRDNAKNTVYLQMNSLKPEDTAVYYCAARYYWGAEAGYYYWGQGTQVTVSS”: the “polyreactivity (PSR sort gate)” value was “high polyreactivity”.
Turning to “QVQLVESGGGLVQAGGSLRLSCAASGRTRYPYTMGWYRQAPGKERELVAAITSSGGRTTYADSVKGRFTISRDNAKNTVFLQMYSLKPEDRAVYYCAKKFRPGYRSQYLRYSWGQGSQVTVSS”, the “polyreactivity (PSR sort gate)” value is listed as “low polyreactivity”.
Turning to “QVQLVESGGGLVQAGGSLRLSCAASGRTSAINAMGWYRQAPGKERELVADITRTGGTYADSVKGRFTISRDNAKNNVYLQMNSLKPEVTAVYYCAAVGAWRFDYWGQGTQVTVSS”, the “polyreactivity (PSR sort gate)” value is “high polyreactivity”.
Turning to “QVQLVESGGGLVQAGGSLRLSCAASGRTSDGYAMGWYRQAPGKERELVAGITEGGGDTYYADSVKGRFTISRDNAKNTVYLQMNSLKPEDTAVYYCNAVEGSRLPYDYWGQGTQVTVSS”, the “polyreactivity (PSR sort gate)” value is recorded as “low polyreactivity”.
In the case of “QVQLVESGGGLVQAGGSLRLSCAASGRTSDSYAMGWYRQAPGKERELVAVISRSGRTYYADSVKGRFTISRDNAKNTVYLQMNSLKPEDTAVYYCAAKWFRTWSGYWGQGTQVTVSS”, the “polyreactivity (PSR sort gate)” value was “high polyreactivity”.
Consider “QVQLVESGGGLVQAGGSLRLSCAASGRTSFQYAMGWYRQAPGKERELVAAISWSGGSTFYADSVKGRFTISRDNAKNTVYLQMNSLKPEDTAVYYCNAVSTDSWAYHGDYWGQGTQVTVSS”, for which the “polyreactivity (PSR sort gate)” value is on record as “low polyreactivity”.
To “QVQLVESGGGLVQAGGSLRLSCAASGRTSGFNTMGWYRQAPGKERELVAAISFSGGSTYYADSVKGRFTISRDNAKNTVYFQMNSLKPEDTAVSYCNALFRYLYRSGDYWRQGTQVTVSS” belongs “low polyreactivity”; to “QVQLVESGGGLVQAGGSLRLSCAASGRTSGYYAMGWYRQAPGKERELVATISGNVGRTYYADSVKGRFTISRDNAKNTVYLQMNSLKPEDTAVYYCAARTYGPYDYWGQGTQVTVSS”, “low polyreactivity”.
Take “QVQLVESGGGLVQAGGSLRLSCAASGRTSLAYSMGWYRQAPGKERELVAAINTRGGSTYYADSVKGRFTISRDNAKNTVYLQINSLKPEDTAVYYCAKGPRLYFTPDKAHWKYDSWGQGTQVTVSS”: the “polyreactivity (PSR sort gate)” value is given as “low polyreactivity”.
Turning to “QVQLVESGGGLVQAGGSLRLSCAASGRTSLGYDMGWYRPAPGQEGELVAAITRSGGSTYYADSVKGRFTISRDNAKNTVYLQMNSLKPEDTAVYYCNRVLPHPDGYGVGARGYWGKGTQVTVSS”, the “polyreactivity (PSR sort gate)” value is given as “high polyreactivity”.
With “QVQLVESGGGLVQAGGSLRLSCAASGRTSLNYAMGWYRQAPGKERELVAAITLRGGNTYYADSVKGRFTISRDNAKNTVYLQMNSLKPEDTAVYYCAAYTKEISIYYPYEYWGQGTQVTVSS” the entry was “high polyreactivity”; with “QVQLVESGGGLVQAGGSLRLSCAASGRTSLRYAMGWYRQAPGKERELVAAIRYGGGSTRYADSVKGRFTISRDNAKNTVYLQMNSLKPEDTAVYYCAARYFPRIQYGRKGYDYWGQGTQVTVSS”, “low polyreactivity”.
Regarding “QVQLVESGGGLVQAGGSLRLSCAASGRTSLYYAMGWYRQAPGKEREFVATITSGGSTNYADSVKGRFTISRDNAKNTVYLQMNSLKPEDTALYYCNARWRRGKTRYGYWGQGTQVNVSS”, the “polyreactivity (PSR sort gate)” value is reported as “high polyreactivity”.
For “QVQLVESGGGLVQAGGSLRLSCAASGRTSRSYTMGWYRQAPGKERELVAAITRGGRTYYADSVKGRFTISRDNAMNTVYLQMNSLKPEDTAVYYCATDRVQSYGYWGQGTQVTVSS”, the “polyreactivity (PSR sort gate)” value is recorded as “low polyreactivity”.
To “QVQLVESGGGLVQAGGSLRLSCAASGRTSRYYAMGWYRQAPGKERELVAGISWSGGNTYYADSVKGRFTISRDNAKNTVYLQMNSLKPEDTAVYYCNARIGWSPSRYGYWGQGTQVTVSS” belongs “high polyreactivity”.
For the sequence “QVQLVESGGGLVQAGGSLRLSCAASGRTSSRYVMGWYRQAPGKERELVASLSRSGGSTSYADSVKGRFTISRDNAKNTVYLQMISLKPEDTAVDYCYARTSFQRGGGFWGQGTQVTVSS”, the “polyreactivity (PSR sort gate)” value was “high polyreactivity”.
For “QVQLVESGGGLVQAGGSLRLSCAASGRTSTIYTMGWYRQAPGKESEFVASISAGAGTYYADSVKGRFTISRDNAKNTVYLQMNSLKPEDTAVYYCNASVYWRSTRRHQMDYWGQGTQVTVSS”, the “polyreactivity (PSR sort gate)” value is “high polyreactivity”.
With “QVQLVESGGGLVQAGGSLRLSCAASGRTSVIYAMGWYRPAPGKERELVAGISYRGTSTYYADSVKGRFTISRDNAKNTVYLLMNSLKPEDTAVYYCAAESYYKYFNNYDYWGQGTQVTVAS” the entry was “high polyreactivity”; with “QVQLVESGGGLVQAGGSLRLSCAASGRTSVLYAMGWYRQAPGKEREFVAAITWNSGSTYYADSVKGRFTISRDNAKNTVYFQMNSLNPEDTAGYYCAADGLSYYVIRFDYWGQGTQVTVSS”, “low polyreactivity”.
Regarding “QVQLVESGGGLVQAGGSLRLSCAASGRTSWANVMGWYRQAPGKERELVAAISSSGDSTYYADSVKGRFTISRDNAKNTVYLQMNSLKPEDTAVDYCAAGYELSDLAILDYRYDYWGQGSQVTVSS”, the “polyreactivity (PSR sort gate)” value was “low polyreactivity”.
Regarding “QVQLVESGGGLVQAGGSLRLSCAASGRTVNIYAMGWYRQAAGKERELVADISYSDGSTDYADSVKGRFTISRDNAKNTVYLQMNSLKPEDTAVYYCAAYYYYYYGFGQRYYSWGQGTQVTVSS”, the “polyreactivity (PSR sort gate)” value is “low polyreactivity”.
Consider “QVQLVESGGGLVQAGGSLRLSCAASGRTVRVYAMGWYRQAPGKERELVAAINGGGSTNYADSVKGRFTISRDSAKNTVYLQMNSLKPEDTAVYYCNATGRRSKRIYDYWGQGTQVTVSS”, for which the “polyreactivity (PSR sort gate)” value was “high polyreactivity”.
With “QVQLVESGGGLVQAGGSLRLSCAASGRTVVNAMGWYRQAPGKERELVAAISSNGGRTYYADSVKGRFTISRDNAKNTVYLQINSLKPEDTAVYYCAAGYIWFRKIQFDYWGQGTQVTVSS” the entry was “high polyreactivity”.
“QVQLVESGGGLVQAGGSLRLSCAASGRTVYRYAMGWYRQAPGKERELVAAITGSGSSTYYADSVKGRFTISRDNAKNTVYLQMNSLKPEDTAVYYCAAARPRLGSAGKFGYWGQGTQVTVSS”: the “polyreactivity (PSR sort gate)” value is listed as “high polyreactivity”.
To “QVQLVESGGGLVQAGGSLRLSCAASGRTYGEYGMGWYRQAPGKERELVAAISSTGSTYYADSVKGRFTISRDNAKNTVYLQMNSLKPEDTAVYYCAAEIVRYGDEYDYWGQGTQVTVSS” belongs “low polyreactivity”; to “QVQLVESGGGLVQAGGSLRLSCAASGRTYLPNDMGWYRPAPGKERELVAAITDSGGDTYYADSVKGRFTISRDIAKNTVYLQMNSLKPEDTAVYYCAADYYYYGSYYPVEYWGHGTQVTVSS”, “high polyreactivity”; to “QVQLVESGGGLVQAGGSLRLSCAASGRTYNVMGWYRQAPGKERYLVAAITWGGGSTHYADSVKGRFTISRDNAKNTVYLQMISLKPEDTAVYYCAADLLYKSTRVDYWGQGTQVTVSS”, “low polyreactivity”.
Take “QVQLVESGGGLVQAGGSLRLSCAASGRTYRYAMGWYRQPPGKERELVAGISSSGTSTNYADSVKGRFTISRDNAKNTVYLQMNSLKPEDTAVYYCNADIIWFPADYLYDYWGQGTQVTVSS”: the “polyreactivity (PSR sort gate)” value is on record as “low polyreactivity”.
As to “QVQLVESGGGLVQAGGSLRLSCAASGRTYSNAMGWYRQAPGKELEFVASISSGGRTKDADSVKGRFTISRDNAKNTVYLQMNSLKPEDTADYYCNTVPGRYRTFDYWGQGTKVTVSS”, the “polyreactivity (PSR sort gate)” value is recorded as “high polyreactivity”.
With “QVQLVESGGGLVQAGGSLRLSCAASGRTYTYYAMGWYRQAPGKERELVAAISDSGGRTYYADSVKGRFTISRDNAKNTVYLQMNSLKPEDTAVYYCAATTYPYYRFDYWGQGTQVTVSS” the entry was “high polyreactivity”; with “QVQLVESGGGLVQAGGSLRLSCAASGRTYVKNAMGWYRQAPGKERELVAAITSGGSTYYADSVKGRFTISRDNAKNTVYLQMNSLKPEDTAVYYCAAAWSSRYVSRYYYWGQGTQVTVSS”, “high polyreactivity”.
With “QVQLVESGGGLVQAGGSLRLSCAASGRTYYPNAIGWYRQAPGKEMDLVADITYSGASTYYADSVKGRFTISRDNAKNTVYLQMNSLKPEDTAVYYCAVPGATSYFAYDSWGQGTQVTVSS” the entry was “low polyreactivity”.
To “QVQLVESGGGLVQAGGSLRLSCAASGRVLPPNAIGWYRQAPGKERELVAAINWSSGRTYYADSVKGRFTISRDYAKNSVYLQMNSLKPEDTAVYDCAKAYRYAYGYDYWGQGTQVTVSS” belongs “high polyreactivity”; to “QVQLVESGGGLVQAGGSLRLSCAASGRVRYAIGWYRQAPGKESELVASITRRAGNTYYADSVKGRFTISRDNAKNTVYLQMNSLKPEDTAVYYCAAADVGAYRGNYWGQGTLVTVSS”, “high polyreactivity”.
For the sequence “QVQLVESGGGLVQAGGSLRLSCAASGSARYAMGWYRQATGNERELVAAISRRGGSTYYADSVKGRFTISRDNATKTVYLHMNSLKPEDTAVYYCAADGRISYDYWGQGTQVTVSS”, the “polyreactivity (PSR sort gate)” value was “low polyreactivity”.
